Source: a protein production outcome set (Wang et al. 2014)

Experiment: label from the status in PepcDB records

Q: With “MTESKKLWTGHIHLGEKVDFGVILNQLCQAFNGSPFFSHNAMQMRVIDNQIEGYIDMQPYLIGNVAFQILHGGVAATLLDSIGGIVAMAEIYRRAEATEMAEAIKKVSRLATVDMRVDYLAPGRGQYFIARAEVLRFGRKGCTMRMNLINDENKAIATAIASYAF” as the sequence, how does the protein production read?
A: failed

Q: With “MTESVARLRGEQLTLGYGKYTVAENLTVEIPDGHFTAIIGPNGCGKSTLLRTLSRLMTPAHGHVWLDGEHIQHYASKEVARRIGLLAQNATTLGDITVQELVARGRYPHQPLFTRWRKEDEEAVTKAMQATGITHLADQSVDTLSGGQRQRAWIAMVLAQETAIMLLDEPTTWLDISHQIDLLELLSELNREKGYTLAAVLHDLNQACRYASHLIALREGKIVAQGAPKEIVTAELIERIYGLRCMIIDDPVAGTPLVVPLGRTAPSTANS” as the sequence, how does the protein production read?
A: failed

Q: For “MTETKPRIAIRYCTQCNWLLRAGWMAQEILQTFASDIGEVSLIPSTGGLFEITVDGTIIWERKRDGGFPGPKELKQRIRDLIDPERDLGHVDRTKHEGLDT”, which protein production is on record?
A: not failed

Q: With “MTEVALSPRGRSVAYTVRRLSPGQAPAPRARLYVARTSGRDDPRLLFQDEHDIRAPAWHPDGTHLAFVRPVNGTPQVFVIPLNGGVPYRLTDTPHGAQAPQWGPDGERLLFASHVPEPAVRRQTARRPPTERPGRTASDTIRTPPPDTLLVLRHDRTLRPVDTLAVDADGRPQTPTDTTDTLHVPRHSSLSDTLTAPPVRRLAGLSPDSLQAVFDRFRLRSDTTTVAVRPDTAAAPNGTLAQVRRWMHQNRRSGTALVSSRLEIQGERQLRPTPTYRHHYVVDLPAGIRSGRPPRPTPRLLTGGYRSYGQADWLPGGEQVVVSGMPATNESPDRVRRRNLYVADLNTPRLRRLLRIENHTLTSPSVTTDGSTVAFRVESLAPSSDAPAEIGLFALDGRSQPRILTSALDRDVTSVTWAPDGWYLYTTAPSEGGRPLFRFTPFAQDTTDGAPQAPSPTLPTDRATSRNTFTFDSTMVRPAEAEQLTSAARAIHSFDVTDATAVYASTDPTTPSALYANTVSFNNERPLATPNAEWLSRRQVAPPDRMTVSHDSLAVTGWVTRPVAFADSLRHPLFVQARGGPPALSAPYTPEAWFERQYLTGRGLGLVEGFPRGSAGFGTAFRRANDKNWGPGPARDILALADSAAALSWTDSTRVALGGTGYGGTLTAWILGRTNRFAAAVALNGVYDLPALLGGGRAWRLVPAEFGGYPWDGVPPRSLGDPVLSSRLPSPDSTAQTPWTALHRNSPLTYAHRIRTPLLLMQGGADRRVGPSQGERLYKRLKILDRPVEYVRYPEVGHDMSASASPRQRLDRLVRTYEFLARFLEPPAPPTAPQSPPRP” as the sequence, how does the protein production read?
A: failed

Q: With “MTEWYVVLPATILLIALSAFFVIIEFALLAARRNRLEETVETSRSSRAALRSLNELTLMLAGAQLGITMVTFALGAITKPWVHYALMPLFEWARIPLVMADVIAFILSLFIVTFLHLVIGEMAPKSWAIAHPETALRTIAIPARGFINLFRPLLQWINKMANDLVRKVGETPVDRAAAGGYDTDTLHALIEHSRETGALDQQSAAQISGIIKLDKITVGQTLTASPFTHSASATVAEVQAAAQRSGSLRVLIDAPSHLFPHVIHVRDTLGASPDEKASKWSRPILTVAETDTLHQALEYMREHNEQISAVLSADGKTVLGVITWDHILKYLWPASV” as the sequence, how does the protein production read?
A: failed

Q: With “MTEYKQEQEMEIEALEAILMDEFKEIHSSESGLNTSNRCFQITVTPQDDELEELAIPPVQLALVFSHTENYPDEAPLLDVKSIRGIHVSDLTILKEKLEQEASENLGMAMIYTLVSSAKDWLSEHYGQDDAAEFAEVEAAKEDEVIVPHGEPVTLETFLAWRERYEAELALERAKLMPESALTAPKEKKLTGRQWFESGRGRGTVVIADEEDEEEDEEDIDFEDEDFEDDEEDMLEHYLAEKSDSSAPPTRT” as the sequence, how does the protein production read?
A: failed

Q: Which protein production does the source give for “MTFAWGRGSHGGAGMRIVQITDTHFSPTKAHFNGNWAPLAAWIEQSGADLVIHTGDLSVDGADRDDDIAFCMDLMREISAPMLLVPGNHDVGHLPGSLQPVNAGRLERWRRLVGPDYWMEDAGSWRLIGLDSLLMGFDDAEEEAQFDWLRTVLESRGGRRVALFAHKPLFVDAPGEGDTGYWSVRPAQRQRLYDLIATHDVALFASGHLHRAWQGKYENTSLVWGPSAAFVVGDMERDMPGERLLGAVIHQFSDTVTSEIVAIPGMTAYVLDDVVAEVYPHEAHKARKRVASLEHHHHHH” here?
A: failed
